The labels stand for the following.
T1: recombinant human TL1A (human, UniProt O95150 71-251)
T1 construct: The ELISA method says only 'recombinant TL1A' coated on plates; homotrimeric cytokine; also called TNFSF15; recombinant TL1A
T1 chain: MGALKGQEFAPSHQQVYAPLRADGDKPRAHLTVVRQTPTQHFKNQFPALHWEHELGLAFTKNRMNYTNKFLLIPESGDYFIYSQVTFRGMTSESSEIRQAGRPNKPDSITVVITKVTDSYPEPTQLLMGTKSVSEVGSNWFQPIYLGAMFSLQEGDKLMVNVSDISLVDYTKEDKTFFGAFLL

B1: TL1A-0307 (antibody, human IgG1, kappa, V domains shown)
VH: QVQLVQSGAEVKKPGASVKVSCKASGYDFTYYGIGWVRQAPGQGLEWMGWISTYNTVTHYAPSLQGRVTMTTDTSTSTAYMELRSLRSDDTAVYYCARESYYGSGAHRGGMDVWGQGTTVTVSS
VL: DIQMTQSPSSLSASVGDRVTITCRASQSVSSYLAWYQQKPGKAPKLLIYDASNRATGVPSRFSGSGSGTDFTLTISSLQPEDFATYYCQQRSNWPWTFGQGTKVEIKR
notes: human IgG1 effector-function-minimized / human kappa
B2: TL1A-0291 (antibody, human IgG1, kappa, V domains shown)
VH: QVQLVQSGAEVKKPGASVKVSCKASGYDFTYYGVSWVRQAPGQGLEWMGWISTYNTGTHYAQKLQGRVTMTTDTSTSTAYMELRSLRSDDTAVYYCARESYYGSGAHRGGMDVWGQGTTVTVSS
VL: DIQMTQSPSSLSASVGDRVTITCRASQSVSSYLAWYQQKPGKAPKLLIYDASNRATGVPSRFSGSGSGTDFTLTISSLQPEDFATYYCQQRSNWPWTFGQGTKVEIKR
notes: as for B1
B3: TL1A-0309 (antibody, human IgG1, kappa, V domains shown)
VH: QVQLVQSGAEVKKPGASVKVSCKASGYDFTYYGIGWVRQAPGQGLEWMGWISTYNTNTHYAPSLQGRVTMTTDTSTSTAYMELRSLRSDDTAVYYCARESYYGSGAHRGGMDVWGQGTTVTVSS
VL: DIQMTQSPSSLSASVGDRVTITCRASQSVSSYLAWYQQKPGKAPKLLIYDASNRATGVPSRFSGSGSGTDFTLTISSLQPEDFATYYCQQRSNWPWTFGQGTKVEIKR
notes: as for B1
B4: TL1A-0310 (antibody, V domains shown)
VH: QVQLVQSGAEVKKPGASVKVSCKASGYDFTYYGIGWVRQAPGQGLEWMGWISTYGGNTHYAPSLQGRVTMTTDTSTSTAYMELRSLRSDDTAVYYCARESYYGSGAFRGGMDVWGQGTTVTVSS
VL: DIQMTQSPSSLSASVGDRVTITCRASQSVSSYLAWYQQKPGKAPKLLIYDASNRATGVPSRFSGSGSGTDFTLTISSLQPEDFATYYCQQRSNWPWTFGQGTKVEIKR
notes: IgG1 effector-minimized/kappa
B5: TL1A-0324 (antibody, human IgG1, kappa, V domains shown)
VH: QVQLVQSGAEVKKPGASVKVSCKASGYDFTYYGISWVRQAPGQGLEWMGWISTYNTNTHYARMLQGRVTMTTDTSTSTAYMELRSLRSDDTAVYYCARESYYGSGAYRGGMDVWGQGTTVTVSS
VL: DIQMTQSPSSLSASVGDRVTITCRASQSVSSYLAWYQQKPGKAPKLLIYDASNRATGVPSRFSGSGSGTDFTLTISSLQPEDFATYYCQQRSNWPWTFGQGTKVEIKR
notes: as for B1
B6: TL1A-0311 (antibody, V domains shown)
VH: QVQLVQSGAEVKKPGASVKVSCKASGYDFTYYGIGWVRQAPGQGLEWMGWISTYGGNTHYAPSLQGRVTMTTDTSTSTAYMELRSLRSDDTAVYYCARESYYGSGAHRGGMDVWGQGTTVTVSS
VL: DIQMTQSPSSLSASVGDRVTITCRASQSVSSYLAWYQQKPGKAPKLLIYDASNRATGVPSRFSGSGSGTDFTLTISSLQPEDFATYYCQQRSNWPWTFGQGTKVEIKR
notes: IgG1 effector-minimized/kappa
B7: TL1A-0308 (antibody, human IgG1, kappa, V domains shown)
VH: QVQLVQSGAEVKKPGASVKVSCKASGYDFTYYGIGWVRQAPGQGLEWMGWISTYNTNTHYAPSLQGRVTMTTDTSTSTAYMELRSLRSDDTAVYYCARESYYGSGAFRGGMDVWGQGTTVTVSS
VL: DIQMTQSPSSLSASVGDRVTITCRASQSVSSYLAWYQQKPGKAPKLLIYDASNRATGVPSRFSGSGSGTDFTLTISSLQPEDFATYYCQQRSNWPWTFGQGTKVEIKR
notes: as for B1

This experiment deals with T1, recombinant human TL1A. Kind of experiment: competition ELISA on coated recombinant TL1A; competitor biotinylated TL1A-0002. As to the method:
For this competition ELISA assay procedure, 96-well high binding plates (Corning, product number 3590) were coated with 1 μg/mL recombinant TL1A in 100 μL/well in Phospate Buffered Saline (PBS) overnight at 4° C. Plates were then blocked in PBS+0.02% casein solution and washed with PBS+0.05% Tween-20 following standard ELISA protocol. […] Plates were washed with PBS+0.05% Tween-20 following standard ELISA protocol, and Streptavidin-HRP (Southern Biotech, product number 7100-05) diluted to 1:10,000 in assay buffer was added to plates and incubated for 25-30 minutes at room temperature. Next, the plates were washed with PBS+0.05% Tween-20 following standard ELISA protocol, and then TMB substrate (BioFX Laboratories, catalog number TMBW-0100-01) was added to plates. Reactions were stopped after approximately 5 minutes by adding 0.18 M ortho-phosphoric acid to each well and absorbance was read at 450 nm.
A general note: In an ELISA, binding on a coated surface is turned into a signal by an enzyme label.
Turning to B1, the “Bioactivity relative to TL1A-0002” value was 3.4 fold and the IC50 (commonly the point on the concentration scale where inhibition reaches its midpoint) stood at 17.2 nM.
Regarding B2, the “Bioactivity relative to TL1A-0002” value is 1.8 fold and the IC50 was determined as 9 nM.
B3: the “Bioactivity relative to TL1A-0002” value amounted to 3.3 fold and the IC50 stood at 16.8 nM.
Regarding B4, the “Bioactivity relative to TL1A-0002” value was determined as 14.8 fold and the IC50 amounted to 74.7 nM.
Turning to B5, the “Bioactivity relative to TL1A-0002” value was 1.2 fold and the IC50 turned out to be 6.1 nM.
Turning to B6, the “Bioactivity relative to TL1A-0002” value is 6 fold and the IC50 turned out to be 30.2 nM.
The like results for B7 were, in that order, 2.8 fold and 14.2 nM.

For the origin of these results see patent US20240059799A1 (Pfizer, published 2024).
